Results: doi:10.1101/2022.08.26.505453
Several values for one entry are separate records, joined by “and”; a condition that tells them apart may be missing. Equal values may be shown once.

How the values were obtained:
[1] = biological target: MBP-Vpu fusion protein (His8 tag, maltose binding protein, 11-residue linker, full-length HIV-1 Vpu with Q36C) (HIV-1); assay: SEC
[2] = biological target: MBP-Vpu fusion protein (His8 tag, maltose binding protein, 11-residue linker, full-length HIV-1 Vpu with Q36C) (HIV-1); assay: SEC; remark: listed apart in the source
[3] = biological target: MBP-Vpu fusion protein (His8 tag, maltose binding protein, 11-residue linker, full-length HIV-1 Vpu with Q36C) (HIV-1); assay: negative staining electron microscopy
[4] = biological target: MBP-Vpu fusion protein (His8 tag, maltose binding protein, 11-residue linker, full-length HIV-1 Vpu with Q36C) (HIV-1); assay: SDS-PAGE and western blot
[5] = biological target: MBP-Vpu fusion protein (His8 tag, maltose binding protein, 11-residue linker, full-length HIV-1 Vpu with Q36C) (HIV-1); assay: SEC; remark: listed apart in the source

Substance: MBP-Vpu fusion protein (His8 tag, maltose binding protein, 11-residue linker, full-length HIV-1 Vpu with Q36C)
- stoichiometry N [1]: 5 and 4
- stoichiometry N [2]: 5 and 4
- stoichiometry N [3]: 5
- stoichiometry N [4]: 2 and 5
- stoichiometry N [5]: 5
